Publication PMC6180082, “Structural Analysis of an Epitope Candidate of Triosephosphate Isomerase in Opisthorchis viverrini” (Scientific Reports, 2018)

Molecular target: the molecule itself
Test: crystal structure; OvTIM wild-type at ~80 mg/ml, hanging-drop vapor diffusion, 0.3 M magnesium chloride hexahydrate, 0.1 M Tris pH 8.5, 22% PEG 3350, 20 °C; molecular replacement; two homodimers in the asymmetric unit

B1: Triosephosphate isomerase from Opisthorchis viverrini (OvTIM), wild-type (enzyme)
chain: MPTDRKFFVGGNWKMNGSKKENDKLIEMLTHAKIDPNTEVLVAPPSLYLPSVREKLDKRFHVAAQNCYKVPSGAFTGEVSPAMLKDVGCDWVILGHSERRHILMETDQLVGEKTNHAISAGVNVIACIGEKLEEREAGKTEEVCFRQMEAIRKNLSSADMWNHIVIAYEPVWAIGTGKTATEQQAQEVHLAVRKWMEEKVSPAVANSIRIIYGGSVTAANCRTLAKQPDVDGFLVGGASLKPDFIEICNANA
notes: Triosephosphate isomerase (EC 5.3.1.1) of Opisthorchis viverrini; cDNA synthesized and cloned NdeI/XhoI into pET17b with a 6 His-tag and thrombin site; residues 175-179 have no clear electron density in the crystal; a thrombin site lies between tag and protein; source: E. coli BL21 (DE3) pLysS, purified (HisTrap HP, HiTrap Q HP, Superdex-200 SEC)
  binding result: binds
